Here are results for four substances from publication PMC3790809.

For experiment [1], the target named is YsaL-His (YE3555 with N-terminal His tag, refolded) (Yersinia enterocolitica ATCC51871 (serotype O:8, biovar 1B)). Kind of experiment: SEC.
Experiment [2] has the same target. Nature of the experiment: cross-linking; refolded YsaL-His (100 µg in 30 µl), 2 µL of 1.5% glutaraldehyde, 25°C, 5 min; 50 mM sodium phosphate pH 8.0, 150 mM NaCl; SDS-PAGE.
Experiment [3] has as its target YsaN-His (full length YsaN, YE3544, with N-terminal His tag) (Yersinia enterocolitica ATCC51871 (serotype O:8, biovar 1B)). Kind of experiment: SEC.
For experiment [4] the target is unchanged. Kind of experiment: dynamic light scattering; YsaN-His 0.7 mg/ml, 25°C, 25 mM Tris, 300 mM NaCl, 2% glycerol; mass from the hydrodynamic size.
Experiment [5] has the same target.
For experiment [6] the target is unchanged. Kind of experiment: SPR.
The target of experiment [7] is YsaNΔ(1–5)-His (Yersinia enterocolitica ATCC51871 (serotype O:8, biovar 1B)). Nature of the experiment: SPR.
For experiment [8], the target named is YsaNΔ(411–430)-His (Yersinia enterocolitica ATCC51871 (serotype O:8, biovar 1B)). Nature of the experiment: SPR.
Experiment [9] deals with YsaNΔ(426–430)-His (Yersinia enterocolitica ATCC51871 (serotype O:8, biovar 1B)). Nature of the experiment: SPR.
Experiment [10] has as its target YsaN-His (full length YsaN, soluble) (Yersinia enterocolitica ATCC51871). Nature of the experiment: SPR.
The target in experiment [11] is YsaNflr-His (full length YsaN, refolded) (Yersinia enterocolitica ATCC51871). Kind of experiment: SPR.
Experiment [12] deals with YsaNΔ(1-5)-His (Yersinia enterocolitica ATCC51871). Nature of the experiment: SPR.
Experiment [13] has as its target YsaNΔ(411-430)-His (Yersinia enterocolitica ATCC51871). Kind of experiment: SPR.
Experiment [14] has as its target YsaNΔ(426-430)-His (Yersinia enterocolitica ATCC51871). Nature of the experiment: SPR.

Where “and” joins values, the source holds several entries; their conditions need not be identical. Equal entries are not always repeated.

Consider “YsaL-His (YE3555 with N-terminal His tag, refolded) (natural protein)”, for which the stoichiometry N in experiment [1] and in [2] was 2 in each case.

Take “YsaN-His (full length YsaN, YE3544, with N-terminal His tag) (enzyme)”: the stoichiometry N in experiment [3] stood at 12. This substance also showed a percent of sample in the oligomeric form in experiment [4] of 90%.

“untagged YsaL (YE3555) (natural protein)”: the inhibition of the ATPase activity of YsaN-His (malachite green assay); untagged YsaL in the soluble co-purified untagged YsaL-YsaN-His complex, highly comparable with YsaL-His added at 2∶1 in experiment [5] was 73%. In addition, the stoichiometry N (YsaL per YsaN) in [3] was 2. Besides, the Kd in experiment [6] was 35 nM and 42 nM; in [7], 400000 nM; in [8] it was 100 nM; in experiment [9], 100 nM.

With “untagged YsaL (YE3555), refolded (natural protein)”, the Ka in experiment [10] worked out at 2.9e+07 M⁻¹; in experiment [11], 2.38e+08 M⁻¹; in experiment [12], 20300 M⁻¹; in experiment [13], 3.86e+06 M⁻¹; in experiment [14], 882000 M⁻¹. The dissociation rate constant (koff) came to 0.000119 s⁻¹ in experiment [10], 1.91e-05 s⁻¹ in [11] and 0.000132 s⁻¹ in experiment [13]. Besides, the figures for the kon in experiment [10], in [11] and in [13] were 3450 M⁻¹ s⁻¹, 4540 M⁻¹ s⁻¹ and 510 M⁻¹ s⁻¹, respectively. Also, the Kd in [13] was 260 nM.
